Measurements: the supplement of paper PMC9112550, “Optimization of the antimicrobial peptide Bac7 by deep mutational scanning” (BMC Biology, 2022)

tested on: Escherichia coli TOP10; experiment: shrunken log2 fold change of peptide-encoding DNA abundance (4.5 h post-induction vs induction); higher = less antimicrobial activity (less host growth inhibition); conditions: time post-induction: 4.5 h; library: site-saturation at positions 5, 18, 19, 20
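Also: peptides expressed intracellularly from a pBAD plasmid library in pooled LB shake-flask culture, induced with 0.3% L-arabinose, DNA abundance read by NGS, three biological replicates, DESeq2 with apeglm shrinkage.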

| Sequence | shrunken log2 fold change |
| --- | --- |
| RRIRSRPPRLPRPRPRPTKMPRP | 0.00603 |
| RRIRNRPPRLPRPRPRPAEMPRP | -0.00992 |
| RRIRDRPPRLPRPRPRPVCYPRP | -0.0717 |
| RRIRDRPPRLPRPRPRPNWKPRP | -0.0238 |
| RRIRLRPPRLPRPRPRPDRLPRP | -0.0156 |
| RRIRLRPPRLPRPRPRPTSEPRP | -0.0829 |
| RRIRGRPPRLPRPRPRPCMVPRP | 0.304 |
| RRIRNRPPRLPRPRPRPAWSPRP | 0.0515 |
| RRIRERPPRLPRPRPRPTWRPRP | 0.268 |
| RRIRLRPPRLPRPRPRPDHDPRP | -0.0947 |
| RRIRQRPPRLPRPRPRPHCRPRP | 0.0105 |
| RRIRSRPPRLPRPRPRPTKYPRP | -0.52 |
| RRIRMRPPRLPRPRPRPSQKPRP | 0.246 |
| RRIRQRPPRLPRPRPRPRDDPRP | 0.538 |
| RRIRKRPPRLPRPRPRPKGQPRP | 0.00959 |
| RRIRHRPPRLPRPRPRPMRSPRP | -0.00134 |
| RRIRVRPPRLPRPRPRPEFQPRP | -0.0311 |
| RRIRDRPPRLPRPRPRPRKHPRP | -0.134 |
| RRIRARPPRLPRPRPRPYTCPRP | -0.0591 |
| RRIRFRPPRLPRPRPRPCRQPRP | 0.229 |
| RRIRARPPRLPRPRPRPPCTPRP | 0.164 |
| RRIRRRPPRLPRPRPRPLTIPRP | -0.133 |

| Sequence | shrunken log2 fold change |
| --- | --- |
| RRIRARPPRLPRPRPRPWESPRP | 0.192 |
| RRIRIRPPRLPRPRPRPAKNPRP | 2.21 |
| RRIRVRPPRLPRPRPRPYVDPRP | -0.0757 |
| RRIRVRPPRLPRPRPRPKRYPRP | -0.078 |
| RRIRFRPPRLPRPRPRPHEAPRP | -0.377 |
| RRIRSRPPRLPRPRPRPWKTPRP | -0.0527 |
| RRIRVRPPRLPRPRPRPKFEPRP | 0.12 |
| RRIRCRPPRLPRPRPRPNGEPRP | -0.0109 |
| RRIRMRPPRLPRPRPRPCLHPRP | -0.608 |
| RRIRARPPRLPRPRPRPNNHPRP | -0.381 |
| RRIRHRPPRLPRPRPRPYRCPRP | 0.0121 |
| RRIRCRPPRLPRPRPRPDGAPRP | 0.129 |
| RRIRFRPPRLPRPRPRPESPPRP | 0.00789 |
| RRIRIRPPRLPRPRPRPWFNPRP | -1.25 |
| RRIRGRPPRLPRPRPRPCAKPRP | 0.661 |
| RRIRWRPPRLPRPRPRPWMQPRP | -0.147 |
| RRIRSRPPRLPRPRPRPAPWPRP | 0.528 |
| RRIRGRPPRLPRPRPRPKWQPRP | 0.194 |
| RRIRKRPPRLPRPRPRPQFEPRP | 0.177 |
| RRIRPRPPRLPRPRPRPITIPRP | -0.197 |
| RRIRKRPPRLPRPRPRPHAIPRP | -0.142 |
| RRIRTRPPRLPRPRPRPSTFPRP | -0.49 |

| Sequence | shrunken log2 fold change |
| --- | --- |
| RRIRMRPPRLPRPRPRPPKNPRP | 1.18 |
| RRIRYRPPRLPRPRPRPRHVPRP | -0.0478 |
| RRIRMRPPRLPRPRPRPSKMPRP | -0.0315 |
| RRIRWRPPRLPRPRPRPPQVPRP | 0.35 |
| RRIRHRPPRLPRPRPRPLASPRP | -0.0121 |
| RRIRNRPPRLPRPRPRPPGLPRP | 0.46 |
| RRIRERPPRLPRPRPRPKYMPRP | 0.822 |
| RRIRDRPPRLPRPRPRPSHCPRP | -0.29 |
| RRIRERPPRLPRPRPRPFWYPRP | -0.000951 |
| RRIRRRPPRLPRPRPRPVKFPRP | 0.0517 |
| RRIRDRPPRLPRPRPRPNDRPRP | -0.12 |
| RRIRLRPPRLPRPRPRPPDLPRP | 0.169 |
| RRIRARPPRLPRPRPRPMHQPRP | 0.0908 |
| RRIRHRPPRLPRPRPRPCYWPRP | -0.026 |
| RRIRGRPPRLPRPRPRPWFSPRP | -0.246 |
| RRIRIRPPRLPRPRPRPRAVPRP | 0.314 |
| RRIRARPPRLPRPRPRPIFMPRP | 0.104 |
| RRIRDRPPRLPRPRPRPHPWPRP | 0.114 |
| RRIRLRPPRLPRPRPRPCCWPRP | 0.41 |
| RRIRVRPPRLPRPRPRPEFRPRP | 0.463 |
| RRIRHRPPRLPRPRPRPYCNPRP | -0.456 |
| RRIRARPPRLPRPRPRPHIRPRP | -0.0962 |

| Sequence | shrunken log2 fold change |
| --- | --- |
| RRIRKRPPRLPRPRPRPICVPRP | 0.0188 |
| RRIRHRPPRLPRPRPRPCGRPRP | -0.0197 |
| RRIRGRPPRLPRPRPRPNHVPRP | 0.425 |
| RRIRYRPPRLPRPRPRPISRPRP | -0.113 |
| RRIRNRPPRLPRPRPRPFQPPRP | -0.0306 |
| RRIRMRPPRLPRPRPRPHHIPRP | -0.165 |
| RRIRPRPPRLPRPRPRPLYSPRP | -0.194 |
| RRIRMRPPRLPRPRPRPICGPRP | 0.237 |
| RRIRHRPPRLPRPRPRPVPYPRP | -0.246 |
| RRIRSRPPRLPRPRPRPATHPRP | -0.0838 |
| RRIRLRPPRLPRPRPRPSYRPRP | -0.242 |
| RRIRDRPPRLPRPRPRPSRYPRP | -0.219 |
| RRIRSRPPRLPRPRPRPTLVPRP | 0.366 |
| RRIRRRPPRLPRPRPRPTRDPRP | 0.64 |
| RRIRVRPPRLPRPRPRPKVRPRP | 0.0291 |
| RRIRTRPPRLPRPRPRPGARPRP | 0.212 |
| RRIRLRPPRLPRPRPRPCNKPRP | -0.686 |
| RRIRIRPPRLPRPRPRPWHEPRP | 0.0173 |
| RRIRGRPPRLPRPRPRPKMKPRP | 0.723 |
| RRIRLRPPRLPRPRPRPWWFPRP | -0.21 |
| RRIRPRPPRLPRPRPRPWAGPRP | -0.0189 |
| RRIRTRPPRLPRPRPRPYNCPRP | -0.168 |

| Sequence | shrunken log2 fold change |
| --- | --- |
| RRIRFRPPRLPRPRPRPTNKPRP | -0.301 |
| RRIRDRPPRLPRPRPRPIMCPRP | -0.0425 |
| RRIRYRPPRLPRPRPRPHYMPRP | -1.45 |
| RRIRSRPPRLPRPRPRPDKMPRP | -0.15 |
| RRIRGRPPRLPRPRPRPYWWPRP | -0.0995 |
| RRIRDRPPRLPRPRPRPVVHPRP | 0.0965 |
| RRIRDRPPRLPRPRPRPCMFPRP | -0.00227 |
| RRIRMRPPRLPRPRPRPPQGPRP | 0.834 |
| RRIRKRPPRLPRPRPRPNSGPRP | 0.0179 |
| RRIRWRPPRLPRPRPRPLFCPRP | 0.22 |
| RRIRNRPPRLPRPRPRPPIMPRP | -0.549 |
| RRIRCRPPRLPRPRPRPFFPPRP | -0.167 |
| RRIRDRPPRLPRPRPRPPDIPRP | -0.0754 |
| RRIRHRPPRLPRPRPRPLGNPRP | 0.017 |
| RRIRGRPPRLPRPRPRPDGPPRP | 0.155 |
| RRIRARPPRLPRPRPRPRPIPRP | 0.719 |
| RRIRGRPPRLPRPRPRPVNSPRP | 0.0202 |
| RRIRPRPPRLPRPRPRPQGLPRP | -0.122 |
| RRIRIRPPRLPRPRPRPQLFPRP | 0.667 |
| RRIRQRPPRLPRPRPRPIIKPRP | -0.111 |
| RRIRFRPPRLPRPRPRPFSCPRP | -0.599 |
